This is an account of results in patent US20090075898A1, “Complement C3A Derived Peptides and Uses Thereof” (Yeda Research and Development Co. Ltd. at the Weizmann …, priority 2005, published 2009).

The test system of test [1] is rat peritoneal mast cells (RPMC). The test can be described thus: Secretory response (β-hexosaminidase release) of rat peritoneal mast cells. It counts as cell-based. The following applies: non-sensitized cells, no antigen. The source says: Rat peritoneal mast cells (RPMC) were isolated as previously described (Kim et al. J. Immunol. 162:4960-4965, […]). Mast cell preparations were ca. 95% pure, as evaluated by flow cytometric monitoring of FcεRI surface expression. Compound 48/80, a specific activator of serosal type mast cells elicited about 50% release of the total β-hexosaminidase content of the isolated rat peritoneal mast cells.
(§1) Secretory response of mast cells.
While mucosal type mast cells are non-responsive to peptidergic stimuli, the serosal type ones have been known for a long time to be stimulated by cationic secretagogues. The anaphylatoxic peptides C3a and C5a initiate the cells' secretory response by binding to their respective receptors expressed by serosal type mast cells. To investigate the effect of the peptides on this mast cell-type, RPMC were used. As expected, these cells did respond to both C5a and C3a (Table 2). However, degranulation was inhibited when peptides C3a7 or C3a9 were added to the IgE-sensitized RPMC and stimulated, 5 min later with a suboptimal antigen dose (Table 2).

Test [2] has as its system rat FcεRI β chain. The test can be described thus: Surface plasmon resonance, immobilized extracellular loop peptides of rat FcεRI β chain. The note with it: SPR. For orientation: In SPR one partner is held on a chip, and binding of the other changes the refractive index at the surface.
Test [3] deals with bone marrow derived mast cells (BMMC). The test can be described thus: Secretory response (β-hexosaminidase release) of bone marrow derived mast cells. In kind it is cell-based, mouse. On the procedure: Cells. Bone marrow derived mast cells (BMMC) were prepared from Balb/c mice as described by Nagao et al. (Science 212: 333-335, 1981). After 3 weeks, an approximately 95% pure mast cell population was obtained, showing high expression of FcεRI and stem cell factor receptor (c-kit), as measured by flow cytometry.
as §1
Similar experiments were carried out using bone-marrow derived mast cells (BMMC). […] The control peptide of the sequence DVSNYITR had no effect on either system.

Test [4] deals with RBL-2H3 cells. The note with it: Erdei et al. 1995, 1999; cited from earlier work.
Test [5] relates to human FcεRI β chain. The test can be described thus: Surface plasmon resonance, immobilized extracellular loop peptides of human FcεRI β chain. The following applies: SPR.

B1: C5a: complement activation product C5a, anaphylatoxic peptide, isolated; used as control (protein)
chain: TLQKKIEEIAAKYKHSVVKKCCYDGACVNNDETCEQRAARISLGPRCIKAFTECCVVASQLRANISHKDMQLGR
B1: the “Stimulation of secretory response of RPMC by the peptide itself” value in test [1] is on record as “did respond”. Further, the “Reaction with any tested sequences (1st and 2nd loop) of rat FcεRI β-chain” value in test [2] is on record as “did not react”. Also, in test [3], the “Inhibition of IgE-mediated secretory response of BMMC” value is given as “had no effect”. In test [4], the “Inhibition of IgE-mediated degranulation of RBL-2H3 cells (literature)” value is “has no effect”. Also, the “Reaction with any tested sequences (1st and 2nd loop) of human FcεRI β-chain” value in test [5] is reported as “did not react”.
